Measured values: the domain aggregation screens of Martell et al. (2025)

Assay: soluble fraction after stress (log2 fold change); higher = more stays soluble; pooled small domains, quantitative proteomics
Conditions: stress: pH 4
Procedure, shortened: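 After pH 4 stress, pooled custom libraries of small protein domains were quantified with high-throughput quantitative proteomics. Aggregation propensity is taken from the fold change in each domain's soluble amount following the acid stress. The scale is log2, where higher values mean more stayed soluble.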

Sequence | soluble fraction (log2)
HMEEPFRIEKKGDIYYISGKTVERLVAMTDLDNDSAVKRLQRTLKRMGVEDALREHGINPGDTVVIGNYEF | 0.04
HMNEGETLYRLRAGDGRARLDKFLAAALPDISRTRFKGLIESGHVRVGGETITEPAYRVKSEAEVELTVPE | 0.0187
HMQLASILDDIPGIGKKRKENLLTHFGSFSKIQSADIDALAEVPGISRDLAETIHTYLKTHQ | -0.0521
HMDKKIVGVNAGKVWQALNEVTEISIVELAEKLNLSVESTALAAGWLAREDQISIERKNGTIELQRKN | -0.177
HMGVTDSSYNVLRRQILEMLSVQQRTPADLARLIEADKEEIAAVIRFLLDKGEIQMEDGMLQTK | -0.151
HMRININNASARQIADALPGVGLKTARDIKDFQTTLSGERYTRLDQLHSIKRVDWDEIFKADLVRV | 0.158
HMVNVTEAIDLENGTGKLSGTFNHEPKSAEEIIFLLKIDTNKWKLSQYWNKQMGDHWRVSALISQI | -1.54
HMSSIYVYPNPTANRIYIQADNIKKAELFDLMGRKVRSTNQPQIDISRLSRGNYILQVKTQNNTQSFKIIK | 0.0347
HMTAGTTALNKLQQGMSTQQVQAALGTPSDRTVKESGVELWKYYYPYENMLLYLKFRDGHLVSFGTN | -0.244
HMKHSEAIELGKRMLSQALQDVSLVLKKIPEERLQAVAAELNLKTPDELFEKIGLGERLAALVARRLLP | 0.0472
HMHRIKRRNDTLVSALDSIAGIGAKRKKALLQHFGSVRAIKAVSAEEIAKVEGISPTLANQIFEAL | -0.0221
HMSFDGFSDRLKSVLNSGKYTQKEAAEKINISEYSFTKYLNGRIPQTEILYKIARLYNKSMEWLLTGKDPI | -0.158
HMNKNQIGTNAGIVWKLLSDNVHWEYDKLKHASGLSDRDLNAAIGWLAREDKIDFDIDEQHDRLFL | -0.255
HMKKGRIGSIIQYVREHPGVSSSEIITGLGLDISPATIRRDLTLLVAENKLSVEGQNKGTKYFVSPTYDMF | 0.271
HMNGTGSVYKLSGKRRNPWRAVVTNGWAYNEEKGKLVQNRVTIGYYHTRDEAIQAIANYNSSP | -0.125
HMDVQNLTKKNQEFINIVTHQLLQSGKSDEDIQTILAKTLPEIIEKQKQGIPARSFLGAPTAWAAQFI | -0.0313
HMGAKLTTAQGGTLKVLVKGKKTHTPTIELRDKDPDFPNAKVVQPDINKGNKQIAHGINGVL | 0.144
HMIDRPLTLVEDYERFAGELAKITLRFMLDGRKRFNGRLAGFDEDGKIVLETSFGRFAFSFDEIDSARI | -2.08
HMINDPSALGQRAFVDELLWMAGYVPEKIEIYQTLPNNSRVYRVKLDSVNGGFIFIRWDKKKKEHYV | -0.444
HMSEYITEGWLREKFGLGWGTEVHLPLDSRLTPAAHQLLEERKIVIKYIDAEGRVFNPDKSGEEAPVQ | -0.343
HMTFPIDINRADTEQLTALPGIGEVLAKRIIAYREENGSFLSTDELKNVEGIGEKRLEAIVDLITIG | -0.935
HMSGRSVSYSEFMSRVEAGQVSSVTLDGERVEVTGSDGSRYVTIAPSDATLTDKLVAKGVEVRADP | 0.196
HMFTEIMAERNALIQAIQQNLPPQHIQSILSKKNKFRLEDLTNEELRDVWQWILNQRQAQQHQQQ | -0.373
HMVFQTAAEKAYEIISKKIMKGEYEPGMRLVRRQLAQELGVSPIPILEAMKRLEQDGLIEYKAHWGSIVTI | -0.56
HMAESNQIQLSDVREALNMIGPASWLDLVHYLDTGKGRGGQRLRRMLKSLSRSGEIELVARGTYQITDN | -0.742

Sequence | soluble fraction (log2)
HMIHQIPVNVQKIRQIIGINLNENDYLNYLAKLGFVIDEGLIIVPSFRSDVKTQNDLAEEIARV | -0.236
HMGTEITEQRAKEIALENAKVAESDVTAMRVKKEMDDGVWRYDVEFYVQNKEYDYEINAMDGTILSVDYD | 0.0797
HMQEDSNISFVKIHVDADSGMAHKKLSKLSLPTGFLIVVIIRGEENIIPNGETEVLPGDLLVAAAREFEN | -0.811
HMGYINLNVKVSPEWRDFWRSAYASVVAGYHQNKEHWNTIILDGSIPDKDIKRMIAESYDLVSD | -0.662
HMRENAARNRNVNLDIGETLRVDAWSPERRARVQYRGAAWDVELAPNAPATVGEFRIVEVRGNVLVVTP | -0.0451
HMTTTPTSQMVTELRSRGWTLRALAQRLGVGHASINRWANGVTPDRDLVAALRALVASGEVP | -0.00752
HMTSTSVKYVNSSSGLNVRKGPSTSYDKVTTLVNGTKVTVISTNNGWSKITSGSITGYVSSQYLSSSS | -0.284
HMKGTVKFFNESKGFGFITEEGTNKEHFVHVSGLVDEIRENDEVEFDLQDGRKGLNAVNVRV | 0.0618
HMDLGLTDDQRLVYGLLSPTVPRSSGELLGMVDFGRSKLSRILKELIELGQVFTVGVGRGLKYKRG | -0.256
HMNPNSIDEKLKLLSNREKEVAILVLKKLSYFEISEQLNITIRTVKAHTKNIYEKFNVSNRLAFLLLFN | -0.209
HMGYVQLTAREKEVLQGLVDGASYKMIAAKLDIRFGTVHTHVKNIYEKLHVNSASEAVVKAIRQRL | -0.743
HMVEPLIVRNFSINYADIDKLETKIKDYISNSDKSGVNRGRVTSDTRTNMLIVTETASKLAQVEQLLKALD | -0.591
HMVAREAYTTQNLTDVFSISRQAVEKRAKREGWQSVPRKGRGGGKLWVVSSMPAETRDLLASLLLRK | ≥ 0.43
HMDGLIRLNKLLATLGVESRRHAEEMIIAGRITVDGVTATEKGQKVRRGAVIKVDGVEVGPPP | 0.0501
HMARTDVKLREVAQELLRMGLLEESLRPHLYRTALASMERLNATLEPLDLIARADEIRGLVFLAVRH | -0.548
HMPLLELPDDFYPAWKPKTIYVQGQRIMLDGVAFEAKWWTQGDNPASGQADPGSSPWRTLTQEEIAKLLE | -0.56
HMQMGLNEAYRVLHVSPDAPWREVQSAYKERMAKSHPDKVSHLGEELQEKAKELTVEINKAYNTIKRYKK | -0.0378
HMGESYQIKDGELLVDIAQRVKPAGMTLRQTINALVAANPRAFRNGNPDLMYRGATLTIPDGDTLRRLAH | 0.0238
HMTLPEKSKRLFSQDDFWDQIFYRIGEGQSLREVSKYYKIPYTTIHDRIHSDEGIKLKYLEALTS | -0.592
HMALSGTVQNFAGGIMILIFRPFKTGDYIEALGYFGKVSEVNIVSTKLRTFDNKTIILPNGALSNGNIQNY | -0.775
HMKDASEFLGAKGKTITPLRPTGAAVINGEKVDVLAEGEFIPKNAEIVVIKVEGSKIIVRNANN | -0.0474
HMKEGGREEMSEIVERYGDERALMANITSVQNLMNNMKWTLDQALDALGIKGKERTLITQQLQ | -0.145
HMREKPRETFQRIAEKVGQTLRKGPVRVQQMDLLFSESREQVMEVLRAMAESGEIRIQDDTLHWNGHT | 0.193
HMPLQKNRPKIKPQKVVFLFSVEWMWSPAHNRIDSYFINIKPSRYYLWNSFFDRHSFSDYWDFIGYTEN | 0.22
HMSKPTLTLKSNAYPYNLNGERINNYLGFTYIKKGATLNYQGSKRINGQNYYYIGDGAYIKNTTVGSTNN | ≥ 0.43

Sequence | soluble fraction (log2)
HMKETIIPELLQNELDKNSELNDKFNTFSPYKQREFIEYIITAKQEKTQISRLQKVILMILEGRGLNN | -0.491
HMSPRADRSVNLDVGETVQIDDWGADGTAQIRYRGAPWTAVLRPGHTPHPGPHRVIELVGSRLLVEP | -0.746
HMGLNEGLNEGQQKVIQHIQENEGIKVKEISLKLNMPIDTVDRHIRVLKNLNLIERRGSRKTGGYFISN | 0.111
HMEENNIVIYITGAVKKEGIYEIKENSRISDAIEAAGGLLENANIKDINLAYIIEDGVKIYIPTNEEVNK | -1.35
HMDVIGLEAAKSAAVKDAGISSPTFTKATLDRDDGRSLYEIEFISGSTKYEYDIDALTGSVLSKKTRALS | ≥ 0.43
HMGANAVAAFTARVRTGPSTGYPVRISVPQGRQVRVISGPYGGWYRVSYQGLTGYTYGGLLRQG | -0.222
HMVNVLKNSTVIDLVKNNLSDALIISLIRRAKVDFSLMTDDVIELSGKGVSPAVIMEMRQAMIRQASEIQN | -0.183
HMGFSDDEHNALADADLKKALEVTTNKSETQYNIAKLIYSYIISLGDKKPYGDWSYDKALSIIHDA | -0.00141
HMSINIDEEKKILGPNADQIIKGITTWGQGLVSKGIWSDADFEEFKIFAATGNGINALNKVRKYY | -0.65
HMVPSSHNIAQKVKQIKINDLWLDVRERYIYLKNLYLSHPLEKDHPSFIVYVEAVNQIYNQYF | 0.0743
HMRQSSLRTRELLIDAARQLFARFGVEKTTMNDIAEASKRGRRTVYMYFNSKSDVFYAVVGRE | -0.116
HMGKPTPASQVATRWLAGDLPETLPVAGPAPSFETLARSVSTDFHPRAVLQELLRLGVAEEADGRVRLLK | -0.0325
HMNQSAVMAERMKQTKNRILQTAKEIFLEQGYKRTTIRQIVERSGITSGSIYNIFSSKEEIFSALVDDL | -1.77
HMAATNVKVPDLKGWDYNNAVGKYGDKLSFVKKSIYSDSVSKGIIIYNARVGETVAQGTTIEVTVSLGPKG | 0.0127
HMFLPFFDNLRKAGVPVSLREFLGFLEGMKAGLATYDIDAFYFLARTTMVKDERNLDKFDRAFSATFKG | -0.935
HMNQTPQISYSQFIADVRSGQIKDVNIDSDNRTIVGHKFSGEEFTTFSPGDNKLVDELLNYNVEIKTSP | -0.125
HMSLDTASDKELLGLIVSEPIATRVLDAFRTLDATLFRTTPAELAAAAGVSSEHAQKIKAVAEIAARMLKP | -0.363
HMNYAVTAARRESILNAALEIFGKSGYNGSSVKQVALAVGMTEAGVLHHFGTKSNLLIEVLRV | ≥ 0.43
HMLKPKDLHLGDSVRVLSLNLKGTVSSLPDTKGFLFVQMGIMRSKLHISDLQLIDEPVITAP | -0.314
HMSPIKAGDLVKITGTKYYRGQTIPSWVKAKNWFVHSVSGDRAVINKSEDGKNAIMSPVKVSNLALVT | 0.0492
HMIKLSTNENTALRLVMERGLVTESELKGLFDNPVAVMESLISKMIETNTHWIHSERSENGEWVYAWQ | -1.46
HMEETLRALAKKISEKVLKSGRSTTLEPMNPYERRIIHSAVSEIEGVSSKSVGEEPYRKVVISSDNP | -0.0148
HMVVRKHDRYYTPEHRKLLMDTYERTNKYPTKQDMSELAKIIGVLPIKILWWYTHRRRQDRRKGEESSSP | -2.23
HMSASNSIDFANRMIYNKNQVAVFNFGKHMGRPVLEVLKSDPSYYDWMMKGDFPMDTKRKLTEIKLQGF | -0.173
HMTTARERVYKTLQQWIVNGTLLPEERLNDVELARYFSVSRTPVREALQMLAEQKLVKMVPSSGTFVA | -0.0644
